Source: US6528487B1, “Peptide inhibitors of inflammation mediated by selectins” (Centocor, Inc., priority 1991, dated 2003)
Values joined by “and” are separate entries in the source; they are usually repeats but may differ in a detail not shown here. Identical values can stand only once. Blank lines part the entries; values can stand above or below the molecule they belong to. Non-standard residues stand in square brackets, D forms with d. No end group written: not given here. *: point of attachment. Fmoc = O=C(OCC1c2ccccc2-c2ccccc21)*

Assays:
GMP-140 = molecular target: T1, GMP-140 (Homo sapiens, UniProt P16109); assay: Inhibition of neutrophil binding to GMP-140 coated wells; type: cell-based; conditions: human neutrophils, immobilized GMP-140
T1 construct: from tissue; host or cells: human platelets (outdated platelet packs from a blood bank)
T1 sequence (P16109 42-830): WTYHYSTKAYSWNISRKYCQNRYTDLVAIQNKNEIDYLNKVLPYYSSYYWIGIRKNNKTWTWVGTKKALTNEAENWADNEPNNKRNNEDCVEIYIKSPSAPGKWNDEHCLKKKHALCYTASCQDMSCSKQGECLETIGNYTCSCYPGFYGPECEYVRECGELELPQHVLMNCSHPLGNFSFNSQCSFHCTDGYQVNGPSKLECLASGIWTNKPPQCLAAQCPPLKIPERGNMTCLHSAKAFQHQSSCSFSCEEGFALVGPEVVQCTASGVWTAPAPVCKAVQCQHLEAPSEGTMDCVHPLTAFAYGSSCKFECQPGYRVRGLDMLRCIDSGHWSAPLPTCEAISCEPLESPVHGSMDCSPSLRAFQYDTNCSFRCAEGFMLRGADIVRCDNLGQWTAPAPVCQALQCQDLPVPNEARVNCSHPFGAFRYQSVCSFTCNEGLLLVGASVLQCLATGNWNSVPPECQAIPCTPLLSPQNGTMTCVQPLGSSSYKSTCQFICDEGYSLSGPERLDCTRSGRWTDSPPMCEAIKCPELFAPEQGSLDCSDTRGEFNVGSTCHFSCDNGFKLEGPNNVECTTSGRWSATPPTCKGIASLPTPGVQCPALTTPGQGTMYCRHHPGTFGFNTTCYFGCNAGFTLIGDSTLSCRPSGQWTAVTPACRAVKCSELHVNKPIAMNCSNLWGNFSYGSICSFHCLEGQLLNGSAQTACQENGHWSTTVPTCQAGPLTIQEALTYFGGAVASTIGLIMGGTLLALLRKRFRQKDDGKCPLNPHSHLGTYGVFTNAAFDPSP
Description: Peptides can be screened for their ability to inhibit adhesion to cells, for example, neutrophil adhesion to purified GMP-140 immobilized on plastic wells, using the assay described by Geng, et al., Nature 343, 757-760 (1990).
Human neutrophils are isolated from heparinized whole blood by density gradient centrifugation on Mono-Poly resolving media, Flow laboratories. Neutrophil suspensions are greater than 98% pure and greater than 95% viable by trypan blue exclusion. For adhesion assays, neutrophils are suspended at a concentration of 2×10^6 cells/mL in Hanks' balanced salt solution containing 1.26 mM Ca^2+ and 0.81 mM Mg^2+ (HBSS, Gibco) with 5 mg/mL human serum albumin (HBSS/HSA). Adhesion assays are conducted in triplicate in 96-well microtiter plates, Corning, incubated at 4° C. overnight with 50 microliters of various protein solutions.
GMP-140 is isolated from human platelet lysates by immunoaffinity chromatography on antibody S12-Sepharose™ and ion-exchange chromatography on a Mono-Q™ column (FLPC, Pharmacia Fine Chemicals, as follows.
GMP-140 is plated at 5 micrograms/mL and the control proteins: human serum albumin (Alb), platelet glycoprotein Iib/IIIha (Iib), von Willebrand factor (vWF), fibrinogen (FIB), thrombomodulin™, gelatin (GEL) or human serum (HS), are added at 50 micrograms/mL. All wells are blocked for 2 h at 22° C. with 300 microliters HBSS containing 10 mg/mL HSA, then ashed three times with HBSS containing 0.1% Tween-20 and once with HBSS. Cells (2×10^5 per well are added to the wells and incubated at 22° C. for 20 min. The wells are then filled with HGSS/HSA, sealed with acetate tape (Dynatech), and centrifuged inverted at 150 g for 5 min. After discarding nonadherent cells and supemates, the contents of each well are solubilized with 200 microliters of 0.5% hexadecyltrimethylammonium bromide, Sigma, in 50 mM potassium phosphate, pH 6.0, and assayed for myeloperoxidase activity, Ley, et al., Blood 73, 1324-1330 (1989). The number of cells bound is derived from a standard curve of myeloperoxidase activity versus numbers of cells. Under all assay conditions, the cells release less than 5% of total myeloperoxidase and lactate dehydrogenase. Inhibition is read as a lower percent adhesion, so that a value of 5% means that 95% of the specific adhesion was inhibited.
Binding of various peptides to GMP-140 coated wells, as described above, were compared.
Binding of the peptides at various concentrations, ranging from 0.05 to 1 mM were compared.
A 5 μg/mL solution of GMP-140 in HBSS (buffer) is prepared. 50 μL is pipetted per well with the exception of three wells (A10 to A12) and the plate is stored overnight at 0° C. to 4° C. The liquids are removed by aspiration and 300 μL of 5 mg/mL human serum albumin (HSA)/HBSS is placed in the wells coated with GMP-140 plus the three non-coated wells to be used as control wells. The plate is allowed to incubate at room temperature for two hours. The HSA/HBSS solution is removed and the wells washed three times with 300 μL/well of HBSS. The third 300 μL wash of HBSS is left in each well and the plate is kept at room temperature until it is used.
Eight to ten mL of fresh human blood collected in heparinized tubes is carefully layered over 5 mL of the Mono-Poly Resolving Medium in 15 mL polypropylene centrifuge tubes. The tubes are centrifuged for 30 minutes at room temperature and 1400 to 1600 rpm. The tubes are rotated 180° and centrifuged for another 30 minutes under the same conditions. The top plasma layer and first cellular layer of leukocytes are drawn off. The second cellular layer of neutrophils is harvested (usually 2 to 3 mL per tube) and is placed in a clean 15 mL centrifuge tube. This is then underlayered with 1.5 mL of fresh resolving medium and spun at 2000 rpm for 15 minutes at room temperature. This is done to further purify the neutrophils from residual red blood cells. […]

[1] = molecular target: GMP-140 receptors on the surface of leukocytes (human); assay: neutrophil adhesion to GMP-140 coated wells, peptide preincubated with neutrophils, myeloperoxidase read-out

percent inhibition of neutrophil binding to GMP-140 at 0.1 mM peptide [1]: 9%
percent inhibition of neutrophil binding to GMP-140 at 1.0 mM peptide [1]: 47%
Molecule: RKNNKTWTWVGTKKALTNEC-NH2

percent inhibition of neutrophil binding to GMP-140 at 0.1 mM peptide [1]: 87%
percent inhibition of neutrophil binding to GMP-140 at 1.0 mM peptide [1]: 105%
Molecule: CRKNNKTWTWV-NH2

percent inhibition of neutrophil binding to GMP-140 at 0.1 mM peptide [1]: 46%
percent inhibition of neutrophil binding to GMP-140 at 0.5 mM peptide [1]: 99%
percent inhibition of neutrophil binding to GMP-140 at 1.0 mM peptide [1]: 99%
Molecule: RKNNGTWTWV-NH2

percent inhibition of neutrophil binding to GMP-140 at 0.1 mM peptide [1]: 17%
percent inhibition of neutrophil binding to GMP-140 at 0.5 mM peptide [1]: 20%
Molecule: RKNNKTWTWE-NH2

percent inhibition of neutrophil binding to GMP-140 at 0.1 mM peptide [1]: 9%
percent inhibition of neutrophil binding to GMP-140 at 0.5 mM peptide [1]: 98%
percent inhibition of neutrophil binding to GMP-140 at 1.0 mM peptide [1]: 104%
Molecule: YKNNKTWTWV-NH2

percent inhibition of neutrophil binding to GMP-140 at 0.1 mM peptide [1]: 94%
percent inhibition of neutrophil binding to GMP-140 at 0.5 mM peptide [1]: 102%
Molecule: RKVNNVWVWV-NH2

percent inhibition of neutrophil binding to GMP-140 at 0.1 mM peptide [1]: 0%
percent inhibition of neutrophil binding to GMP-140 at 0.5 mM peptide [1]: 0%
percent inhibition of neutrophil binding to GMP-140 at 1.0 mM peptide [1]: 0%
Molecule: KWKWNRTNVT-NH2 […-NH2 (control peptide)]

percent inhibition of neutrophil binding to GMP-140 at 0.1 mM peptide [1]: 13% and 14%
percent inhibition of neutrophil binding to GMP-140 at 0.5 mM peptide [1]: 20% and 30%
Molecule: RKNNKTWTWV-NH2

Continued, molecule first:

Molecule: RKVNNVWVWV [RKVNNVWVWV, Arginyl-lysyl-valyl-asparaginyl-asparaginyl-valyl-tryptophyl-valyl-tryptophyl-valine]
inhibition at 100 µM (GMP-140; peptide concentration 0.1 mM, read-out: Percent inhibition of neutrophil binding to GMP-140): 82%
inhibition at 500 µM (GMP-140; peptide concentration 0.5 mM, read-out: Percent inhibition of neutrophil binding to GMP-140): 98%

Molecule: RKNNKTWTWV (Synthetic inhibitory peptide) [Arginyl-lysyl-asparaginyl-asparaginyl-lysyl-threonyl-tryptophyl-hreonyl-tryptophyl-valine]
Percent inhibition of neutrophil binding to GMP-140 (GMP-140; peptide concentration 0.1 mM): 14%
Percent inhibition of neutrophil binding to GMP-140 (GMP-140; peptide concentration 1.0 mM): 35%

Molecule: RENNKTWTWV-NH2
percent inhibition of neutrophil binding to GMP-140 at 0.1 mM peptide [1]: 34%
percent inhibition of neutrophil binding to GMP-140 at 0.5 mM peptide [1]: 94%
percent inhibition of neutrophil binding to GMP-140 at 1.0 mM peptide [1]: 96%

Molecule: RKVNNVWVWV
percent inhibition of neutrophil binding to GMP-140 at 0.1 mM peptide [1]: 82%
percent inhibition of neutrophil binding to GMP-140 at 0.5 mM peptide [1]: 98%

Molecule: RKNNKTW-NH2 [RKNNKTW-NH2]
percent inhibition of neutrophil binding to GMP-140 at 0.1 mM peptide [1]: 31%
percent inhibition of neutrophil binding to GMP-140 at 0.5 mM peptide [1]: 53%
percent inhibition of neutrophil binding to GMP-140 at 1.0 mM peptide [1]: 99%

Molecule: RKVNNVW-NH2 [RKVNNVW-NH2]
percent inhibition of neutrophil binding to GMP-140 at 1.0 mM peptide [1]: 17%

Molecule: RKIGGIWTWV-NH2
percent inhibition of neutrophil binding to GMP-140 at 0.1 mM peptide [1]: 96%
percent inhibition of neutrophil binding to GMP-140 at 0.5 mM peptide [1]: 103%
percent inhibition of neutrophil binding to GMP-140 at 1.0 mM peptide [1]: 105%

Molecule: Ac-RKNNKTWTWV-NH2 [Ac-…-NH2]
percent inhibition of neutrophil binding to GMP-140 at 0.1 mM peptide [1]: 35%
percent inhibition of neutrophil binding to GMP-140 at 0.5 mM peptide [1]: 50%

Molecule: RKNNKTWT-NH2 [RKNNKTWT-NH2]
percent inhibition of neutrophil binding to GMP-140 at 0.1 mM peptide [1]: 26%
percent inhibition of neutrophil binding to GMP-140 at 0.5 mM peptide [1]: 23%
percent inhibition of neutrophil binding to GMP-140 at 1.0 mM peptide [1]: 34%

Molecule: RKNNKTWTWV
percent inhibition of neutrophil binding to GMP-140 at 0.1 mM peptide [1]: 14%
percent inhibition of neutrophil binding to GMP-140 at 1.0 mM peptide [1]: 35%

B1: r…-NH2 (peptide)
peptide: [dR]KIGGIWTWV-NH2
modifications: N-terminus assumed
SMILES: CC[C@H](C)[C@H](NC(=O)CNC(=O)CNC(=O)[C@@H](NC(=O)[C@H](CCCCN)NC(=O)[C@H](N)CCCNC(=N)N)[C@@H](C)CC)C(=O)N[C@@H](Cc1c[nH]c2ccccc12)C(=O)N[C@H](C(=O)N[C@@H](Cc1c[nH]c2ccccc12)C(=O)N[C@H](C(N)=O)C(C)C)[C@@H](C)O
percent inhibition of neutrophil binding to GMP-140 at 0.1 mM peptide [1]: 95%
percent inhibition of neutrophil binding to GMP-140 at 0.5 mM peptide [1]: 96%

B2: RkIGGIWTWV-NH2 (peptide)
peptide: R[dK]IGGIWTWV-NH2
modifications: N-terminus assumed
SMILES: CC[C@H](C)[C@H](NC(=O)CNC(=O)CNC(=O)[C@@H](NC(=O)[C@@H](CCCCN)NC(=O)[C@@H](N)CCCNC(=N)N)[C@@H](C)CC)C(=O)N[C@@H](Cc1c[nH]c2ccccc12)C(=O)N[C@H](C(=O)N[C@@H](Cc1c[nH]c2ccccc12)C(=O)N[C@H](C(N)=O)C(C)C)[C@@H](C)O
percent inhibition of neutrophil binding to GMP-140 at 0.1 mM peptide [1]: 67%
percent inhibition of neutrophil binding to GMP-140 at 0.5 mM peptide [1]: 88%
percent inhibition of neutrophil binding to GMP-140 at 1.0 mM peptide [1]: 97%

B3: FMOC-NNKTW-NH2 (peptide)
peptide: Fmoc-NNKTW-NH2
SMILES: C[C@@H](O)[C@H](NC(=O)[C@H](CCCCN)NC(=O)[C@H](CC(N)=O)NC(=O)[C@H](CC(N)=O)NC(=O)OCC1c2ccccc2-c2ccccc21)C(=O)N[C@@H](Cc1c[nH]c2ccccc12)C(N)=O
percent inhibition of neutrophil binding to GMP-140 at 0.1 mM peptide [1]: 85%
percent inhibition of neutrophil binding to GMP-140 at 0.5 mM peptide [1]: 100%
percent inhibition of neutrophil binding to GMP-140 at 1.0 mM peptide [1]: 99%
